Reference: patent US20150037324A1

How the values were obtained:
[1] = target: human GPR49 (G-Protein-coupled Receptor 49) on cells (human) (UniProt O75473); assay: cell-based or functional assay
[2] = target: Recombinant human GPR49-Fc ectodomain (human); assay: direct ELISA on coated GPR49-Fc, about 0.1-250 nM, A450; table without unit, nM from the axis [nM] Ab; control whose curve in FIG. 9G is flat (see non_binding), so the fitted value lies outside the range tested and carries no meaning
Chain of Recombinant human GPR49-Fc ectodomain (human) (chain, as listed by the source limits assumed, form in doubt): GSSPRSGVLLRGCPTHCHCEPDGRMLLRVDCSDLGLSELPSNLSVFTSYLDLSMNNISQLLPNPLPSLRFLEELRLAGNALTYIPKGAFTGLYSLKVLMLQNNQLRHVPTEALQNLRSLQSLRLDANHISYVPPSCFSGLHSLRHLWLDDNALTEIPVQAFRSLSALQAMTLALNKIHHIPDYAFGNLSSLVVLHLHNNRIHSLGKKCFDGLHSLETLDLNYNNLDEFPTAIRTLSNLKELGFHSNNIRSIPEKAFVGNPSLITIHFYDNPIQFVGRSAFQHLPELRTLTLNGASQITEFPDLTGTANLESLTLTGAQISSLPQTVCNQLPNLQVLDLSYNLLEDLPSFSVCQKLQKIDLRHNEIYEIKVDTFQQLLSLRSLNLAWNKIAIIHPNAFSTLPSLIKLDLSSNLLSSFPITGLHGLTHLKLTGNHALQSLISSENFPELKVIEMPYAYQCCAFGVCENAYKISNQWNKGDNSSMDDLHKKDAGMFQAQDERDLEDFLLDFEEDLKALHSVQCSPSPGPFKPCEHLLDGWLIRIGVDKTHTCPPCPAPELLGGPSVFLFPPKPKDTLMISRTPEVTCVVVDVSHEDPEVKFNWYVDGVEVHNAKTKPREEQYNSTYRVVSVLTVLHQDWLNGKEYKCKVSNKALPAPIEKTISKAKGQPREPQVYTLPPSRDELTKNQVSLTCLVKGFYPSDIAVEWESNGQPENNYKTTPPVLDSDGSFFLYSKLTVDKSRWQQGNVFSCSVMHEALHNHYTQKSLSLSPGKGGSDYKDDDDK

Chain of human GPR49 (G-Protein-coupled Receptor 49) on cells (human) (O75473 22-907 limits assumed): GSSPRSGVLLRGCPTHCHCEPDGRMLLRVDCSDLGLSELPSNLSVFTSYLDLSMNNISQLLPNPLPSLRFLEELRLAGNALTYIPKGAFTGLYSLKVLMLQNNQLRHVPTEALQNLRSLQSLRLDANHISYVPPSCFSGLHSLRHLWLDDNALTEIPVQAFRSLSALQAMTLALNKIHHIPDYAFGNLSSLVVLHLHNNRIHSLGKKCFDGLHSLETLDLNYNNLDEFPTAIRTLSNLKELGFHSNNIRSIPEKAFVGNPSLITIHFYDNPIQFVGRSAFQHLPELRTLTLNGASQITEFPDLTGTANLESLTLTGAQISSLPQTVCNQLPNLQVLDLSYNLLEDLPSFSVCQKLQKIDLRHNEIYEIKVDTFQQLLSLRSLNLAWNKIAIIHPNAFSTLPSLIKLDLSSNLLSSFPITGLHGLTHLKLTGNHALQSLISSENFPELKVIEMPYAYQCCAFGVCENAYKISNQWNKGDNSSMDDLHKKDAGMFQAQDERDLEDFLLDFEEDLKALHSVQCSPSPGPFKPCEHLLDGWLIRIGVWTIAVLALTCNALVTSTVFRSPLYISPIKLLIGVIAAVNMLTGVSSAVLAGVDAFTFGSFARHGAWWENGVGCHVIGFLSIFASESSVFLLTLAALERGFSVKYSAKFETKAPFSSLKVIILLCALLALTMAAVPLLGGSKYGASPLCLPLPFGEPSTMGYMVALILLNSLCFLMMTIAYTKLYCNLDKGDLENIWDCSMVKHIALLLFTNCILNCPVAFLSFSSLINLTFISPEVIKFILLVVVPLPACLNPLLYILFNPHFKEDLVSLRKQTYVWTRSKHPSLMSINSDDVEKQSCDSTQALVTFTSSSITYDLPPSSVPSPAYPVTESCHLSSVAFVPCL

Row | increase in proliferation, GPR49-3T3 clone 28 [1] | EC50 [2] | Substance
1 | 4 fold |  | R-spondin-1 (ligand)
2 |  | 1580 nM | Ctrl (antibody)
